Results reported in patent US6995240.

Molecular target: HLA-DR on rheumatoid synovial fluid mononuclear cells (human)
Test: cell-based or functional assay

anti-HLA-DR monoclonal antibody L243 (ATCC)
inhibition of rheumatoid synovial fluid T cell proliferation to p78: 66 to 84%
